Series [1] addresses T1, CbrB (Pseudomonas putida, UniProt A0ABM7EKZ2 1-480).
T1 sequence: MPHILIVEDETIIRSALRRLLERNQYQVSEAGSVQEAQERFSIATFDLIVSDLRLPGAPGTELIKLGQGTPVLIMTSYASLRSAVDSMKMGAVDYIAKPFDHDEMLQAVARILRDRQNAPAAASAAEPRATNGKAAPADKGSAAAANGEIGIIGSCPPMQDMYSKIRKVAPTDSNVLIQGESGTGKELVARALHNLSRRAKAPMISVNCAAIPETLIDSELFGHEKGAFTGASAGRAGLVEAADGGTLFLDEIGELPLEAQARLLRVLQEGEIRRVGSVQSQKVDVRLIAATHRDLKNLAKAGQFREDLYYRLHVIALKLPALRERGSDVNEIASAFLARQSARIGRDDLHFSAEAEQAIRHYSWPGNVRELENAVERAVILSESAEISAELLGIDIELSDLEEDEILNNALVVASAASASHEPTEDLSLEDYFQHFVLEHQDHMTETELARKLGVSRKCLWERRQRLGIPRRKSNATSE
As to the kind of experiment: EMSA; EMSA at room temperature; crcZ/crcY (5 nM): 35 mM Tris-acetate pH 7.9, 70 mM KAc, 20 mM NH4Ac, 2 mM MgAc2, 1 mM CaCl2, 1 mM DTT, 5% glycerol; others (1.5 nM) and footprint: 50 mM Tris-HCl pH 7.4, 50 mM KCl, 10 mM MgCl2, 0.1 mM EDTA, 1 mM DTT; plus 100 ng/ul salmon sperm DNA, 250 ng/ul BSA. The conditions noted are these: protein: recombinant, tags: N-terminal His tag (pET-14b derived pMPO1229), label: 32P-dATP Klenow fill-in. A general note: In EMSA bound probe runs differently from free probe, usually more slowly.

Series [2] addresses T1, CbrB. As to the kind of experiment: EMSA; not significantly affected; EMSA at room temperature; crcZ/crcY (5 nM): 35 mM Tris-acetate pH 7.9, 70 mM KAc, 20 mM NH4Ac, 2 mM MgAc2, 1 mM CaCl2, 1 mM DTT, 5% glycerol; others (1.5 nM) and footprint: 50 mM Tris-HCl pH 7.4, 50 mM KCl, 10 mM MgCl2, 0.1 mM EDTA, 1 mM DTT; plus 100 ng/ul salmon sperm DNA, 250 ng/ul BSA. The conditions noted are these: protein: recombinant; tags: N-terminal His tag (pET-14b derived pMPO1229); label: 32P-dATP Klenow fill-in; 5' overhang 2 nt at both ends before fill-in.

[3] abbreviates: 5' overhang 2 nt at both ends before fill-in.

B1: PcrcY wt 72 bp (dsDNA)
DNA 1: TTGTGTGGGTGAAGTGTTACCTCCCGCACATTTCACAGCAAAAAATCGGGTAACAGGGAAACAAATCGGCAGAA
DNA 2: TTTTCTGCCGATTTGTTTCCCTGTTACCCGATTTTTTGCTGTGAAATGTGCGGGAGGTAACACTTCACCCACAC
For B1, the binding result in the series with CbrB [1] (setting [3]) is “binds”.

B2: PcrcY R2 mutant (dsDNA)
DNA 1: TTGTGTGGGTGAAGTGTTACCTCCCGCACATTTCACAGCAAAAAATCGGGTAACAGGTCTCATAATCGGCAGAA
DNA 2: TTTTCTGCCGATTATGAGACCTGTTACCCGATTTTTTGCTGTGAAATGTGCGGGAGGTAACACTTCACCCACAC
Consider B2, for which the binding result in the series with CbrB [2] is given as “binds”.

B3: PcrcY R' mutant (dsDNA)
DNA 1: TTGTGTGGGTGAAGTGTTACCTCCCGCACATTTCACAGCAAAAAATCGGTACCGTGGGAAACAAATCGGCAGAA
DNA 2: TTTTCTGCCGATTTGTTTCCCACGGTACCGATTTTTTGCTGTGAAATGTGCGGGAGGTAACACTTCACCCACAC
Consider B3, for which the binding result with CbrB [2] is listed as “binds”.

B4: PcrcY F1 mutant (dsDNA)
DNA 1: TTGTGTGGGTGAAGGACTCTCTCCCGCACATTTCACAGCAAAAAATCGGGTAACAGGGAAACAAATCGGCAGAA
DNA 2: TTTTCTGCCGATTTGTTTCCCTGTTACCCGATTTTTTGCTGTGAAATGTGCGGGAGAGAGTCCTTCACCCACAC
Turning to B4, in the series with CbrB [1] (setting [3]), the binding result is on record as “no binding”.

B5: PcrcZ wt 72 bp (dsDNA)
DNA 1: TTCCCGTAAAAATCTGTTACCCAAGCTTTCCGCCGTAACAGTCCCCGAGGCGTACGGTAACGAAATTGCGACAT
DNA 2: TTATGTCGCAATTTCGTTACCGTACGCCTCGGGGACTGTTACGGCGGAAAGCTTGGGTAACAGATTTTTACGGG
With B5, the binding result with CbrB [1] (setting [3]) is reported as “binds”.

B6: PcrcZ R1 mutant (dsDNA)
DNA 1: TTCCCGTAAAAATCTGTTACCCAAGCTTTCCGCCTGCTACGTCCCCGAGGCGTACGGTAACGAAATTGCGACAT
DNA 2: TTATGTCGCAATTTCGTTACCGTACGCCTCGGGGACGTAGCAGGCGGAAAGCTTGGGTAACAGATTTTTACGG
Turning to B6, the binding result with CbrB [1] (5' overhang 2 nt (one end 3 nt, reverse strand printed one G shorter) before fill-in) is recorded as “no binding”.

B7: PcrcZ F1 mutant (dsDNA)
DNA 1: TTCCCGTAAAAATCGACTCTCCAAGCTTTCCGCCGTAACAGTCCCCGAGGCGTACGGTAACGAAATTGCGACAT
DNA 2: TTATGTCGCAATTTCGTTACCGTACGCCTCGGGGACTGTTACGGCGGAAAGCTTGGAGAGTCGATTTTTACGGG
Regarding B7, the binding result with CbrB [1] (setting [3]) is on record as “no binding”.

B8: PcrcZ R2 mutant (dsDNA)
DNA 1: TTCCCGTAAAAATCTGTTACCCAAGCTTTCCGCCGTAACAGTCCCCGAGGCGTACGTACCGTAAATTGCGACAT
DNA 2: TTATGTCGCAATTTACGGTACGTACGCCTCGGGGACTGTTACGGCGGAAAGCTTGGGTAACAGATTTTTACGGG
On to B8, for which, in the series with CbrB [1] (setting [3]), the binding result is “no binding”.

The values above are taken from PMC6296734, “The CbrB Regulon: Promoter dissection reveals novel insights into the CbrAB expression network in Pseudomonas putida”.
